Earlier results in PMC10280637.
pKd: −log10 of the molar value.

Target: IL-17A (Homo sapiens) (UniProt Q16552)
Sequence (Q16552 24-155): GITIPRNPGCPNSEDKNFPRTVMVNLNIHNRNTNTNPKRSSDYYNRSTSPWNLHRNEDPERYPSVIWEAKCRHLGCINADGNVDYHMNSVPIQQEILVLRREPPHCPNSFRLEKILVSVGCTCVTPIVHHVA

Substance: Secukinumab
- pKd: 10.22
